This note sets out measurements from patent US20170101476A1 (Novartis, published 2017).

Experiment in all cases: cell-based or functional assay
In one assay the target is T1, Cynomolgus CXCR2 (cynomolgus, UniProt Q28519 3-353 (rhesus entry)).
T1 chain: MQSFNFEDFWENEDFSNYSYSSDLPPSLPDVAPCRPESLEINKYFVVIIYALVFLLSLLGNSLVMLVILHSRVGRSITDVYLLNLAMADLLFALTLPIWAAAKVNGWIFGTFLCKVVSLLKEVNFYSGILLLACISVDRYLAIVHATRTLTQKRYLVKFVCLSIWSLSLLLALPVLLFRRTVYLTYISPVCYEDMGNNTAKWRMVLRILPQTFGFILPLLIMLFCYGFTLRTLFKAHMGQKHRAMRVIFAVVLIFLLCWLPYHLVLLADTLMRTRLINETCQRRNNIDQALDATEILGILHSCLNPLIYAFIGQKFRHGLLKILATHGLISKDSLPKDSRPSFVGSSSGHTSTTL

The target in assay [1] is T2, Human CXCR2 (human, UniProt P25025 1-360).
T2 sequence: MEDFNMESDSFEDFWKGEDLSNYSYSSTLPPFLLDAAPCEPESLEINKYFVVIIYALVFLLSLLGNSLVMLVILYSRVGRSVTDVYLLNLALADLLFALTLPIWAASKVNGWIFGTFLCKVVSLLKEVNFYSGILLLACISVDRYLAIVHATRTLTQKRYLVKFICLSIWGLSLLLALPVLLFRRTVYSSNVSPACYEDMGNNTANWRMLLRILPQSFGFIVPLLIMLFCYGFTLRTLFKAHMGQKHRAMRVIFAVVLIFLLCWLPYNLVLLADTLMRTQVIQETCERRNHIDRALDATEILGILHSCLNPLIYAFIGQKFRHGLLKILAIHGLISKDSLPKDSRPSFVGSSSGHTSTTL

The target of assay [2] is T2, Human CXCR2. This is another data set of the same source.

B1: CXCR20027 (bispecific antibody, not shown: small tags and cut ends)
chain: EVQLVESGGGLVQPGGSLRLSCVASGRIFSSNAMGWFRQAPGKEREFVAAITWRSGGSAYYADSAKGRFTISRDNAKNTVYLQMNSLKPEDTAVYYCAAGGSSWLSFPPDYWGQGTQVTVSSGGGGSGGGGSGGGGSGGGGSGGGGSGGGGSGGGGSEVQLVESGGGLVQAGGSLRLSCAASGRTFSDYAMGWFRQAPGKEREFVAAITWNGGRVFYTASVKGRFTISRDNAKNTMYLQMNSLKPEDTAVYYCAADKDRRTDYLGHPVAYWGQGTQVTVSS
For B1, the entries for the “FLIPR IC50, GRO-α induced intracellular calcium release” value with Cynomolgus CXCR2 and with Human CXCR2 [1] were 12.7 nM and 17.8 nM, respectively.

B2: CXCR20011 (VHH, not shown: small tags and cut ends)
chain: EVQLVESGGGLVQPGGSLRLSCVASGSIVRINTMGWYRQTPGKQRELVADITSGGNINYIDAVKGRFTISRDNTKNTVYLQMNSLKPEDTAVYYCNAEIVVLVGVWTQRARTGNYWGQGTQVTVSSGGGGSGGGGSGGGGSGGGGSGGGGSGGGGSGGGGSEVQLVESGGGLVQPGGSLRLSCVASGSIVRINTMGWYRQTPGKQRELVADITSGGNINYIDAVKGRFTISRDNTKNTVYLQMNSLKPEDTAVYYCNAEIVVLVGVWTQRARTGNYWGQGTQVTVSS
Regarding B2, the “FLIPR IC50, GRO-α induced intracellular calcium release” value with Human CXCR2 [1] came to 137 nM.

B3: CXCR20017 (other, not shown: small tags and cut ends)
chain: EVQLVESGGGLVQPGGSLRLSCVASGSIVRINTMGWYRQTPGKQRELVADITSGGNINYIDAVKGRFTISRDNTKNTVYLQMNSLKPEDTAVYYCNAEIVVLVGVWTQRARTGNYWGQGTQVTVSSGGGGSGGGGSGGGGSGGGGSGGGGSGGGGSGGGGSEVQLVESGGGLVQPGGSVRLSCVASGIIFRLSALGWTRQGPGKAREWVAGINSDGTTNYADPVKGRFTISRDNAKNTIYLHMDMLKPEDTAVYYCASGKYRGQGTQVTVSS
Consider B3, for which the “FLIPR IC50, GRO-α induced intracellular calcium release” value in the assay with Cynomolgus CXCR2 was 1080 nM; with Human CXCR2 [1], 22.9 nM.

B4: CXCR20016 (other, not shown: small tags and cut ends)
chain: EVQLVESGGGLVQPGGSVRLSCVASGIIFRLSALGWTRQGPGKAREWVAGINSDGTTNYADPVKGRFTISRDNAKNTIYLHMDMLKPEDTAVYYCASGKYRGQGTQVTVSSGGGGSGGGGSGGGGSGGGGSGGGGSGGGGSGGGGSEVQLVESGGELVQPGGSLRLSCAASGSILTINAMGWYRQAPGKQRELVVRRTRGGSTTYQDSVKGRFTISADIAKKTMYLQMNSLKPEDTAVYYCMLDDRGGVYWGQGTQVTVSS
Take B4: the figures for the “FLIPR IC50, GRO-α induced intracellular calcium release” value with Cynomolgus CXCR2 and with Human CXCR2 [1] were 1100 nM and 2.36 nM, respectively.

B5: CXCR20025 (bispecific antibody, not shown: small tags and cut ends)
chain: EVQLVESGGGLVQAGGSLRLSCAASGRTFSDYAMGWFRQAPGKEREFVAAITWNGGRVFYTASVKGRFTISRDNAKNTMYLQMNSLKPEDTAVYYCAADKDRRTDYLGHPVAYWGQGTQVTVSSGGGGSGGGGSGGGGSGGGGSGGGGSGGGGSGGGGSEVQLVESGGGLVQAGESLRLSCAASGSTFDFKVMGWYRQPPGKQREGVAAIRLSGNMHYAESVKGRFTISKANAKNTVYLQMNSLRPEDTAVYYCKVNIRGQDYWGQGTQVTVSS
B5: the “FLIPR IC50, GRO-α induced intracellular calcium release” value with Cynomolgus CXCR2 worked out at 7.88 nM. In the assay with Human CXCR2 [1], the “FLIPR IC50, GRO-α induced intracellular calcium release” value came out at 12.2 nM. Also, in the assay with Human CXCR2 [2], the “[35S]GTPγS % inhibition of max, GRO-α” value worked out at 100% and the “[35S]GTPγS accumulation IC50, GRO-α” value amounted to 0.891 nM.

B6: CXCR20032 (bispecific antibody, not shown: small tags and cut ends)
chain: EVQLVESGGELVQPGGSLRLSCAASGSILTINAMGWYRQAPGKQRELVVRRTRGGSTTYQDSVKGRFTISADIAKKTMYLQMNSLKPEDTAVYYCMLDDRGGVYWGQGTQVTVSSGGGGSGGGGSGGGGSGGGGSGGGGSGGGGSGGGGSEVQLVESGGGLVQAGGSLRLSCAASGRTFSDYAMGWFRQAPGKEREFVAAITWNGGRVFYTASVKGRFTISRDNAKNTMYLQMNSLKPEDTAVYYCAADKDRRTDYLGHPVAYWGQGTQVTVSS
As for B6, the “FLIPR IC50, GRO-α induced intracellular calcium release” value in the assay with Cynomolgus CXCR2 stood at 3.65 nM. The “FLIPR IC50, GRO-α induced intracellular calcium release” value with Human CXCR2 [1] worked out at 14.7 nM. In the assay with Human CXCR2 [2], the “[35S]GTPγS % inhibition of max, ENA-78” value stood at 100%; the “[35S]GTPγS % inhibition of max, IL-8” value was found to be 100%; the “[35S]GTPγS accumulation IC50, ENA-78” value worked out at 0.116 nM; the “[35S]GTPγS accumulation IC50, IL-8” value is 0.997 nM.

B7: CXCR20024 (VHH, not shown: small tags and cut ends)
chain: EVQLVESGGGLVQPGGSLRLSCVASGRIFSSNAMGWFRQAPGKEREFVAAITWRSGGSAYYADSAKGRFTISRDNAKNTVYLQMNSLKPEDTAVYYCAAGGSSWLSFPPDYWGQGTQVTVSSGGGGSGGGGSGGGGSGGGGSGGGGSGGGGSGGGGSEVQLVESGGGLVQPGGSLRLSCVASGRIFSSNAMGWFRQAPGKEREFVAAITWRSGGSAYYADSAKGRFTISRDNAKNTVYLQMNSLKPEDTAVYYCAAGGSSWLSFPPDYWGQGTQVTVSS
In the case of B7, the entries for the “FLIPR IC50, GRO-α induced intracellular calcium release” value in the assay with Cynomolgus CXCR2 and with Human CXCR2 [1] were 11.8 nM and 26.4 nM, respectively. The “[35S]GTPγS % inhibition of max, GRO-α” value in the assay with Human CXCR2 [2] amounted to 100%. The “[35S]GTPγS accumulation IC50, GRO-α” value in the assay with Human CXCR2 [2] worked out at 30.3 nM.

B8: CXCR20029 (other, not shown: small tags and cut ends)
chain: EVQLVESGGGLVQPGGSLRLSCVASGRIFSSNAMGWFRQAPGKEREFVAAITWRSGGSAYYADSAKGRFTISRDNAKNTVYLQMNSLKPEDTAVYYCAAGGSSWLSFPPDYWGQGTQVTVSSGGGGSGGGGSGGGGSGGGGSGGGGSGGGGSGGGGSEVQLVESGGGLVQAGGSLTLSCAVSGSTFRINTMGWYRRAPGKQRELVAARDRGGYINYVDSVKGRFTVSRDNAKPTMYLQMNSLKPEDTAVYYCHAGTQDRTGRNFDRWGQGTQVTVSS
For B8, the “FLIPR IC50, GRO-α induced intracellular calcium release” value was determined as 10.1 nM with Cynomolgus CXCR2 and 17.1 nM in the assay with Human CXCR2 [1].

B9: CXCR20013 (bispecific antibody, not shown: small tags and cut ends)
chain: EVQLVESGGELVQPGGSLRLSCAASGSILTINAMGWYRQAPGKQRELVVRRTRGGSTTYQDSVKGRFTISADIAKKTMYLQMNSLKPEDTAVYYCMLDDRGGVYWGQGTQVTVSSGGGGSGGGGSGGGGSGGGGSGGGGSGGGGSGGGGSEVQLVESGGGLVQPGGSLRLSCVASGSIVRINTMGWYRQTPGKQRELVADITSGGNINYIDAVKGRFTISRDNTKNTVYLQMNSLKPEDTAVYYCNAEIVVLVGVWTQRARTGNYWGQGTQVTVSS
As for B9, the results for the “FLIPR IC50, GRO-α induced intracellular calcium release” value in the assay with Cynomolgus CXCR2 and in the assay with Human CXCR2 [1] were 29.2 nM and 2.93 nM, respectively.

B10: CXCR20031 (bispecific antibody, not shown: small tags and cut ends)
chain: EVQLVESGGELVQPGGSLRLSCAASGSILTINAMGWYRQAPGKQRELVVRRTRGGSTTYQDSVKGRFTISADIAKKTMYLQMNSLKPEDTAVYYCMLDDRGGVYWGQGTQVTVSSGGGGSGGGGSGGGGSGGGGSGGGGSGGGGSGGGGSEVQLVESGGGLVQPGGSLRLSCVASGRIFSSNAMGWFRQAPGKEREFVAAITWRSGGSAYYADSAKGRFTISRDNAKNTVYLQMNSLKPEDTAVYYCAAGGSSWLSFPPDYWGQGTQVTVSS
Regarding B10, in the assay with Cynomolgus CXCR2, the “FLIPR IC50, GRO-α induced intracellular calcium release” value was found to be 4.26 nM. In the assay with Human CXCR2 [1], the “FLIPR IC50, GRO-α induced intracellular calcium release” value worked out at 15.2 nM. Besides, in the assay with Human CXCR2 [2], the “[35S]GTPγS % inhibition of max, ENA-78” value stood at 100%; the “[35S]GTPγS % inhibition of max, IL-8” value was determined as 100%; the “[35S]GTPγS accumulation IC50, ENA-78” value came to 1.38 nM; the “[35S]GTPγS accumulation IC50, IL-8” value is 0.84 nM.

B11: CXCR20015 (other, not shown: small tags and cut ends)
chain: EVQLVESGGELVQPGGSLRLSCAASGSILTINAMGWYRQAPGKQRELVVRRTRGGSTTYQDSVKGRFTISADIAKKTMYLQMNSLKPEDTAVYYCMLDDRGGVYWGQGTQVTVSSGGGGSGGGGSGGGGSGGGGSGGGGSGGGGSGGGGSEVQLVESGGGLVQPGGSVRLSCVASGIIFRLSALGWTRQGPGKAREWVAGINSDGTTNYADPVKGRFTISRDNAKNTIYLHMDMLKPEDTAVYYCASGKYRGQGTQVTVSS
As for B11, the results for the “FLIPR IC50, GRO-α induced intracellular calcium release” value in the assay with Cynomolgus CXCR2 and in the assay with Human CXCR2 [1] were 2870 nM and 2.78 nM, respectively.

B12: CXCR20036 (other, not shown: small tags and cut ends)
chain: EVQLVESGGGLVQAGGSLTLSCAVSGSTFRINTMGWYRRAPGKQRELVAARDRGGYINYVDSVKGRFTVSRDNAKPTMYLQMNSLKPEDTAVYYCHAGTQDRTGRNFDRWGQGTQVTVSSGGGGSGGGGSGGGGSGGGGSGGGGSGGGGSGGGGSEVQLVESGGGLVQAGGSLRLSCAASGRTFSDYAMGWFRQAPGKEREFVAAITWNGGRVFYTASVKGRFTISRDNAKNTMYLQMNSLKPEDTAVYYCAADKDRRTDYLGHPVAYWGQGTQVTVSS
Regarding B12, the results for the “FLIPR IC50, GRO-α induced intracellular calcium release” value with Cynomolgus CXCR2 and with Human CXCR2 [1] were 4.27 nM and 7.86 nM, respectively.

B13: CXCR20021 (bispecific antibody, not shown: small tags and cut ends)
chain: EVQLVESGGGLVQAGESLRLSCAASGSTFDFKVMGWYRQPPGKQREGVAAIRLSGNMHYAESVKGRFTISKANAKNTVYLQMNSLRPEDTAVYYCKVNIRGQDYWGQGTQVTVSSGGGGSGGGGSGGGGSGGGGSGGGGSGGGGSGGGGSEVQLVESGGGLVQPGGSLRLSCVASGRIFSSNAMGWFRQAPGKEREFVAAITWRSGGSAYYADSAKGRFTISRDNAKNTVYLQMNSLKPEDTAVYYCAAGGSSWLSFPPDYWGQGTQVTVSS
On to B13, for which the “FLIPR IC50, GRO-α induced intracellular calcium release” value in the assay with Cynomolgus CXCR2 is 2.31 nM. The “FLIPR IC50, GRO-α induced intracellular calcium release” value with Human CXCR2 [1] came to 7.32 nM. Moreover, in the assay with Human CXCR2 [2], the “[35S]GTPγS % inhibition of max, ENA-78” value worked out at 100%; the “[35S]GTPγS % inhibition of max, GRO-α” value stood at 100%; the “[35S]GTPγS % inhibition of max, IL-8” value worked out at 100%; the “[35S]GTPγS accumulation IC50, ENA-78” value was 0.787 nM. Besides, in the assay with Human CXCR2 [2], the “[35S]GTPγS accumulation IC50, GRO-α” value came to 0.551 nM and the “[35S]GTPγS accumulation IC50, IL-8” value worked out at 0.827 nM.
